# Results taken from publication PMC11728977, “Crystallographic, kinetic, and calorimetric investigation of PKA interactions with L-type calcium channels and Rad GTPase” (The Journal of Biological Chemistry, 2024).
# B1: CaV1.2 Ser1981 peptide (peptide)
# peptide: RGFLRSASLGRRASFHL
# notes: human CaV1.2 (α1c subunit) C-terminal tail, residues 1968-1984 around the PKA site Ser1981; also called S1981 peptide; CaV1.2 S1981 peptide; source: synthetic peptide
# B2: CaV1.2 Ser1981 peptide L1971A (peptide)
# peptide: RGFARSASLGRRASFHL
# notes: also called L1971A peptide; S1981 (L1971A); source: synthetic peptide
# B3: CaV1.2 Ser1981 peptide F1982A (peptide)
# peptide: RGFLRSASLGRRASAHL
# notes: human CaV1.2 residues 1968-1984 with F1982A (P+1 position); also called F1982A peptide; S1981 (F1982A); source: synthetic peptide
# B4: CaV1.2 Ser1981 peptide S1975R (peptide)
# peptide: RGFLRSARLGRRASFHL
# notes: also called S1975R peptide; S1981 (S1975R); source: synthetic peptide
# B5: Rad Ser25 peptide (peptide)
# peptide: GAGRERDRRRGSTPW
# notes: Rad GTPase N-terminal tail, residues 14-28 around Ser25; also called Rad S25 peptide; source: synthetic peptide
# B6: Rad Ser272 peptide (peptide)
# peptide: ARRQAGTRRRESLGK
# notes: Rad GTPase C-terminal tail, residues 261-275 around Ser272; also called Rad S272 peptide; S272 peptide; source: synthetic peptide
# Target: catalytic subunit of PKA, isoform alpha, residues 16-351 (PKAcα_(16-351)), preparation for ITC (mouse, UniProt P05132-1 16-351)
# Assay: ITC; peptide or substrate (1.25 to 4.3 mM) titrated into the cell containing PKAc (149 to 204 μM); 4 °C; 50 mM Hepes (pH 7.4), 150 mM KCl, 5 mM MgCl2, 2 mM TCEP; 0.5 mM AMP-PNP in both solutions
# Settings: both partners purified
Kd [µM],dH [kcal/mol],stoichiometry N,Binder
34,3.11,0.98,B1
18,2.63,1.06,B2
147,2.46,0.99,B3
532,3.35,1.08,B4
460,-2.61,0.83,B5
126,-4.06,0.98,B6
